Patent publication US20220267436A1 (published 2022)

What was measured:
human LAG-3 [1] = biological target: T1, human LAG-3 (human, UniProt P18627 23-525); experiment: flow cytometry, CHO-K1 cells expressing human LAG-3; FIG. 2
T1 chain: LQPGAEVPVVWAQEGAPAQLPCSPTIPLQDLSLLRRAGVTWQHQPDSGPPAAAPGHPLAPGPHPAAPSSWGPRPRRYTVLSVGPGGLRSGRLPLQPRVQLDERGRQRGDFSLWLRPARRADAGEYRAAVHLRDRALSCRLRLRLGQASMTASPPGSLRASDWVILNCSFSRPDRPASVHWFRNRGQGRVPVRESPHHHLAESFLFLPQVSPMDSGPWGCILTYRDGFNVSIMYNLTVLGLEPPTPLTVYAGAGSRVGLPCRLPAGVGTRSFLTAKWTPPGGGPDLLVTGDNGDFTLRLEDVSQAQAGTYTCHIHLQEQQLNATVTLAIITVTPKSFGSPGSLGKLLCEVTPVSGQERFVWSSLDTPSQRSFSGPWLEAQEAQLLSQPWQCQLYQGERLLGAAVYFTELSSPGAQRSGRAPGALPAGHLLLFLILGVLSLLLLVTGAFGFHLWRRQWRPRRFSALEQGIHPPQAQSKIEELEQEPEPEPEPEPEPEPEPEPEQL

human CD47 = human CD47 (human, UniProt Q08722 19-323); experiment: flow
Sequence of human CD47 (Q08722 19-323): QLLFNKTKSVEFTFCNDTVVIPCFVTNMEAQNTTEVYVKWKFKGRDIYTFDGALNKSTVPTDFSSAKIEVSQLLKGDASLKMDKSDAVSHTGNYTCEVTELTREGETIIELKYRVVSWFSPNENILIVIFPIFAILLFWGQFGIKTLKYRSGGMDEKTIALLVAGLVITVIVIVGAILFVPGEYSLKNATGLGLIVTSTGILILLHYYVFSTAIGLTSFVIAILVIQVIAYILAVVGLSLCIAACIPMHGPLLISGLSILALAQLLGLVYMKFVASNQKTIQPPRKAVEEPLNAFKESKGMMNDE

human LAG-3 [2] = biological target: T1, human LAG-3; experiment: flow cytometry, CHO-K1 cells expressing human LAG-3; FIG. 1

B1: bispecific antibody LAG3-E-LC (bispecific antibody)
heavy: not shown
light: EIVLTQSPATLSLSPGERATLSCRASENVGTYISWYQQKPGQAPRLLIYGASNRYTGIPARFSGSGSGTDFTLTISSLEPEDFAVYYCGESYGHLYTFGGGTKVEIKRTVAAPSVFIFPPSDEQLKSGTASVVCLLNNFYPREAKVQWKVDNALQSGNSQESVTEQDSKDSTYSLSSTLTLSKADYEKHKVYACEVTHQGLSSPVTKSFNRGECEPKSSDKTHTSPPSPEVQLVESGGGLVQPGGSLRLSCAASGYTVSSYCMGWFRQAPGKGREGVSAIDSDGSVSYADSVKGRFTISKDNSKNTLYLQMNSLRAEDTAVYFCAADLCWVDQDQGEYNTWGQGTLVTVSS
EC50 (human LAG-3 [1]): 0.552 nM

B2: bispecific antibody LAG3-E-LN (bispecific antibody)
heavy: not shown
light: EVQLVESGGGLVQPGGSLRLSCAASGYTVSSYCMGWFRQAPGKGREGVSAIDSDGSVSYADSVKGRFTISKDNSKNTLYLQMNSLRAEDTAVYFCAADLCWVDQDQGEYNTWGQGTLVTVSSEPKSSDKTHTSPPSPEIVLTQSPATLSLSPGERATLSCRASENVGTYISWYQQKPGQAPRLLIYGASNRYTGIPARFSGSGSGTDFTLTISSLEPEDFAVYYCGESYGHLYTFGGGTKVEIKRTVAAPSVFIFPPSDEQLKSGTASVVCLLNNFYPREAKVQWKVDNALQSGNSQESVTEQDSKDSTYSLSSTLTLSKADYEKHKVYACEVTHQGLSSPVTKSFNRGEC
EC50 (human LAG-3 [1]): 0.448 nM

B3: bispecific antibody LAG3-E-HC (bispecific antibody)
heavy: not shown
light: EIVLTQSPATLSLSPGERATLSCRASENVGTYISWYQQKPGQAPRLLIYGASNRYTGIPARFSGSGSGTDFTLTISSLEPEDFAVYYCGESYGHLYTFGGGTKVEIKRTVAAPSVFIFPPSDEQLKSGTASVVCLLNNFYPREAKVQWKVDNALQSGNSQESVTEQDSKDSTYSLSSTLTLSKADYEKHKVYACEVTHQGLSSPVTKSFNRGEC
EC50 (human CD47): 1.17 nM | EC50 (human LAG-3 [2]): 0.8 nM

B4: bispecific antibody LAG3-G15-HC (bispecific antibody)
heavy: not shown
light: EIVLTQSPATLSLSPGERATLSCRASENVGTYISWYQQKPGQAPRLLIYGASNRYTGIPARFSGSGSGTDFTLTISSLEPEDFAVYYCGESYGHLYTFGGGTKVEIKRTVAAPSVFIFPPSDEQLKSGTASVVCLLNNFYPREAKVQWKVDNALQSGNSQESVTEQDSKDSTYSLSSTLTLSKADYEKHKVYACEVTHQGLSSPVTKSFNRGEC
EC50 (human CD47): 0.911 nM | EC50 (human LAG-3 [2]): 0.672 nM

B5: bispecific antibody LAG3-G15-HN (bispecific antibody)
heavy: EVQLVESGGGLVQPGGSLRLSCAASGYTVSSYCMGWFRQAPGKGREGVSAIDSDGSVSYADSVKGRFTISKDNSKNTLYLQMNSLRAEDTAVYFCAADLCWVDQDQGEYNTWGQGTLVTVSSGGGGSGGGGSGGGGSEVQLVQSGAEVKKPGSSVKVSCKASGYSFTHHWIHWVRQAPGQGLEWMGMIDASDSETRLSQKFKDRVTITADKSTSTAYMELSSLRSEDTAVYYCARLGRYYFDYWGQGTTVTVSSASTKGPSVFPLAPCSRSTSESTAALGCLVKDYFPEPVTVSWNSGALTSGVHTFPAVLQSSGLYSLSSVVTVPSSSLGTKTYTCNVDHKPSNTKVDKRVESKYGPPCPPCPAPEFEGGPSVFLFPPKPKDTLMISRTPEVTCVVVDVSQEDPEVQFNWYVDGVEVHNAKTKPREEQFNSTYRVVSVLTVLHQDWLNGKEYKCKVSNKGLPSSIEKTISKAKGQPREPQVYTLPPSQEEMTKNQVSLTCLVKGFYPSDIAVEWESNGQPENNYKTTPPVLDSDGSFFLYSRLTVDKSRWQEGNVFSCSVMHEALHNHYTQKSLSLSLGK
light: EIVLTQSPATLSLSPGERATLSCRASENVGTYISWYQQKPGQAPRLLIYGASNRYTGIPARFSGSGSGTDFTLTISSLEPEDFAVYYCGESYGHLYTFGGGTKVEIKRTVAAPSVFIFPPSDEQLKSGTASVVCLLNNFYPREAKVQWKVDNALQSGNSQESVTEQDSKDSTYSLSSTLTLSKADYEKHKVYACEVTHQGLSSPVTKSFNRGEC
EC50 (human CD47): 3.85 nM | EC50 (human LAG-3 [2]): 0.57 nM

B6: bispecific antibody LAG3-E-HN (bispecific antibody)
heavy: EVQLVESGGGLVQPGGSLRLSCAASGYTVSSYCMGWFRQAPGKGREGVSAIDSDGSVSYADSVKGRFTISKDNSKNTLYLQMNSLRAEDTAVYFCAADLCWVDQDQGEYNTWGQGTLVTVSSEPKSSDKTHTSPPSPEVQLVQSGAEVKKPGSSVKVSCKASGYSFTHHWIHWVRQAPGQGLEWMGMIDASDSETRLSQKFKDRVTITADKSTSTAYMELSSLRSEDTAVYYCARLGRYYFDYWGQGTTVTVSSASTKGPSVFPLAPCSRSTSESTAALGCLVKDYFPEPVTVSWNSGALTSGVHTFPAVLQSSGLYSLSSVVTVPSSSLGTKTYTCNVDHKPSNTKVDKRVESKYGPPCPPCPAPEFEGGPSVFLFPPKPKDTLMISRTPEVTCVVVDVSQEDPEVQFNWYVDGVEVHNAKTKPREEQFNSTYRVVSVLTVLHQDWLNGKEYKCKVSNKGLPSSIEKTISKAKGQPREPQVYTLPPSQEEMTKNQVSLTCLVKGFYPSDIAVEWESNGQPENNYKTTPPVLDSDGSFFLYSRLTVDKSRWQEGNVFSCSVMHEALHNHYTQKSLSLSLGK
light: EIVLTQSPATLSLSPGERATLSCRASENVGTYISWYQQKPGQAPRLLIYGASNRYTGIPARFSGSGSGTDFTLTISSLEPEDFAVYYCGESYGHLYTFGGGTKVEIKRTVAAPSVFIFPPSDEQLKSGTASVVCLLNNFYPREAKVQWKVDNALQSGNSQESVTEQDSKDSTYSLSSTLTLSKADYEKHKVYACEVTHQGLSSPVTKSFNRGEC
EC50 (human CD47): 4.44 nM | EC50 (human LAG-3 [2]): 0.526 nM

B7: bispecific antibody LAG3-G9-HN (bispecific antibody)
heavy: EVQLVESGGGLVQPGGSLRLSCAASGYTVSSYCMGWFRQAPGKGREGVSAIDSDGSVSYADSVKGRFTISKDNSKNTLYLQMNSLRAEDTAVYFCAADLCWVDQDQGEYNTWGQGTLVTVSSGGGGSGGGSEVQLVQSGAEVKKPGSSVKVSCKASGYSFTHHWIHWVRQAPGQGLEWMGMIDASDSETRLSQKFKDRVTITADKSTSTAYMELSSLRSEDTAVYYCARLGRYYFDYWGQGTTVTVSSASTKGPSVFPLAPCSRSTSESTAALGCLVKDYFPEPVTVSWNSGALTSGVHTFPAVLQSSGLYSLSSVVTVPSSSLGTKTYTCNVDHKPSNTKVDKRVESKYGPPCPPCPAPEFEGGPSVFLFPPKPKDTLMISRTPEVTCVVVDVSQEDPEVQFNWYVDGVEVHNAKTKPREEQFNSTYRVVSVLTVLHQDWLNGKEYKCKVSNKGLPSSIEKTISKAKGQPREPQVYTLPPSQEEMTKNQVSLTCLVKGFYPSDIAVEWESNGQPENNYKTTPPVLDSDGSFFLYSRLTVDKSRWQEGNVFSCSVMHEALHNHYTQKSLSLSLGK
light: EIVLTQSPATLSLSPGERATLSCRASENVGTYISWYQQKPGQAPRLLIYGASNRYTGIPARFSGSGSGTDFTLTISSLEPEDFAVYYCGESYGHLYTFGGGTKVEIKRTVAAPSVFIFPPSDEQLKSGTASVVCLLNNFYPREAKVQWKVDNALQSGNSQESVTEQDSKDSTYSLSSTLTLSKADYEKHKVYACEVTHQGLSSPVTKSFNRGEC
EC50 (human CD47): 3.96 nM | EC50 (human LAG-3 [2]): 0.477 nM

B8: bispecific antibody LAG3-G9-HC (bispecific antibody)
heavy: not shown
light: EIVLTQSPATLSLSPGERATLSCRASENVGTYISWYQQKPGQAPRLLIYGASNRYTGIPARFSGSGSGTDFTLTISSLEPEDFAVYYCGESYGHLYTFGGGTKVEIKRTVAAPSVFIFPPSDEQLKSGTASVVCLLNNFYPREAKVQWKVDNALQSGNSQESVTEQDSKDSTYSLSSTLTLSKADYEKHKVYACEVTHQGLSSPVTKSFNRGEC
EC50 (human CD47): 0.865 nM | EC50 (human LAG-3 [2]): 0.602 nM

B9: bispecific antibody LAG3-G9-LN (bispecific antibody)
heavy: not shown
light: EVQLVESGGGLVQPGGSLRLSCAASGYTVSSYCMGWFRQAPGKGREGVSAIDSDGSVSYADSVKGRFTISKDNSKNTLYLQMNSLRAEDTAVYFCAADLCWVDQDQGEYNTWGQGTLVTVSSGGGGSGGGSEIVLTQSPATLSLSPGERATLSCRASENVGTYISWYQQKPGQAPRLLIYGASNRYTGIPARFSGSGSGTDFTLTISSLEPEDFAVYYCGESYGHLYTFGGGTKVEIKRTVAAPSVFIFPPSDEQLKSGTASVVCLLNNFYPREAKVQWKVDNALQSGNSQESVTEQDSKDSTYSLSSTLTLSKADYEKHKVYACEVTHQGLSSPVTKSFNRGEC
EC50 (human LAG-3 [1]): 0.322 nM

B10: bispecific antibody LAG3-G15-LN (bispecific antibody)
heavy: not shown
light: EVQLVESGGGLVQPGGSLRLSCAASGYTVSSYCMGWFRQAPGKGREGVSAIDSDGSVSYADSVKGRFTISKDNSKNTLYLQMNSLRAEDTAVYFCAADLCWVDQDQGEYNTWGQGTLVTVSSGGGGSGGGGSGGGGSEIVLTQSPATLSLSPGERATLSCRASENVGTYISWYQQKPGQAPRLLIYGASNRYTGIPARFSGSGSGTDFTLTISSLEPEDFAVYYCGESYGHLYTFGGGTKVEIKRTVAAPSVFIFPPSDEQLKSGTASVVCLLNNFYPREAKVQWKVDNALQSGNSQESVTEQDSKDSTYSLSSTLTLSKADYEKHKVYACEVTHQGLSSPVTKSFNRGEC
EC50 (human LAG-3 [1]): 0.535 nM

B11: anti-CD47 monoclonal antibody (mAb) (antibody, V domains shown)
VH: EVQLVQSGAEVKKPGSSVKVSCKASGYSFTHHWIHWVRQAPGQGLEWMGMIDASDSETRLSQKFKDRVTITADKSTSTAYMELSSLRSEDTAVYYCARLGRYYFDYWGQGTTVTVSS
VL: EIVLTQSPATLSLSPGERATLSCRASENVGTYISWYQQKPGQAPRLLIYGASNRYTGIPARFSGSGSGTDFTLTISSLEPEDFAVYYCGESYGHLYTFGGGTKVEIKR
EC50 (human CD47): 1.01 nM
